The chains are these.
B1: CID210279 (designed binder)
chain: ADNKFSQSANLLAEAKKLNDAQGGLTEEQRNGFIQSLKDDTHPEDRQHNKEQQNAFYEILHLPK
B2: CID213235 (designed binder)
chain: ADNKFSQSANLLAEAKKLSDAQRGLTEEQRNGFIQSLKDDTKRHPKMNKEQQNAFYEILHLPK
B3: CID213246 (designed binder)
chain: ADNKFSQSANLLAEAKKLNDAQGGLTEEQRNGFIQSLKDDVRRVGSNKEQQNAFYEILHLPK
B4: CID213191 (designed binder)
chain: ADNKFSQSANLLAEAKKLNDAQGGLTEEQRNGFIQSLKDDGTEGVHNKEQQNAFYEILHLPK
B5: CID213224 (designed binder)
chain: ADNKFSQSANLLAEAKKLNDAQNGLTEEQRNGFIQSLKDDVRTNGANKEQQNAFYEILHLPK
B6: CID213215 (designed binder)
chain: ADNKFSQSANLLAEAKKLNDAQGGLTEEQRNGFIQSLKDDVRKLGPNKEQQNAFYEILHLPK
B7: CID213278 (designed binder)
chain: ADNKFSQSANLLAEAKKLNDAQGGLTEEQRNGFIQSLKDDMNVGKHNKEQQNAFYEILHLPK
B8: CID213333 (designed binder)
chain: ADNKFSQSANLLAEAKKLNDAQGGITEEQRNGFIQSLKDDAKTNPGNNKEQQNAFYEILHLPK
B9: CID213197 (designed binder)
chain: ADNKFSQSANLLAEAKKLNDAQGGLTEEQRNGFIQSLKDDTAANPTANKEQQNAFYEILHLPK
B10: CID210259 (designed binder)
chain: ADNKFSQSANLLAEAKKLNDAQGGITEEQRNGFIQSLKDDAKRNPMTNKEQQNAFYEILHLPK
B11: SEQ ID NO: 41 (CID208846) (designed binder)
chain: ADNKFSQSANLLAEAKKLNDAQGGITEEQRNGFIQSLKDDIGASPMNKEQQNAFYEILHLPK
B12: SEQ ID NO: 42 (CID208847) (designed binder)
chain: ADNKFSQSANLLAEAKKLNDAQGGLTEEQRNGFIQSLKDDVPAGVANNKEQQNAFYEILHLPK
B13: CID-210240 (designed binder)
chain: ADNKFSQSANLLAEAKKLNDAQGGLTEEQRNGFIQSLKDDPVLRGKPNKEQQNAFYEILHLPK
notes: not tied in the text
B14: CID-213213 (designed binder)
chain: ADNKFSQSANLLAEAKKLNDAQGGLTEEQRNGFIQSLKDDHTPTRGNKEQQNAFYEILHLPK
notes: not tied in the text
B15: CID-210234 (designed binder)
chain: ADNKFSQSANLLAEAKKLNDAQGGLTEEQRNGFIQSLKDDASEKGANKEQQNAFYEILHLPK
notes: not tied in the text
B16: CID-213276 (designed binder)
chain: ADNKFSQSANLLAEAKKLNDAQGGITEEQRNGFIQSLKDDAKANPEANKEQQNAFYEILHLPK
notes: not tied in the text

In one test the target is T1, hIgG1-Fc (human, UniProt P01857-1 100-330 = IgG part, limits assumed).
T1 construct: domain: Fc; treated as the same molecule; also called IgG1 Fc region; hIgG-Fc
The experiment in a line: SPR, Biacore 3000, 25 C, Langmuir 1:1 model. From the text:
(§1) A CM5 sensor chip (GE Healthcare) was equilibrated with SPR running buffer. Surface-exposed carboxylic groups were activated by passing a mixture of EDC and NHS to yield reactive ester groups. 700-1500 RU on-ligand were immobilized on a flow cell, off-ligand was immobilized on another flow cell. Injection of ethanolamine after ligand immobilization removes non-covalently bound Ig binding protein. Upon ligand binding, protein analyte was accumulated on the surface increasing the refractive index. This change in the refractive index was measured in real time and plotted as response or resonance units (RU) versus time. The analytes were applied to the chip in serial dilutions with a suitable flow rate (µl/min). After each run, the chip surface was regenerated with regeneration buffer and equilibrated with running buffer. The control samples were applied to the matrix. Regeneration and re-equilibration were performed as previously mentioned. Binding studies were carried out by the use of the Biacore® 3000 (GE Healthcare) at 25° C.; data evaluation was operated via the BIAevaluation 3.0 software, provided by the manufacturer, by the use of the Langmuir 1:1 model (RI=0). Evaluated dissociation constants (KD) were standardized against off-target and KD values of different artificial Ig binding proteins for hIgG1-Fc (FIG. 2 and TABLE 6). For example, the KD of SEQ ID NO: 41 (CID208846) and SEQ ID NO: 42 (CID208847) is in single-digit µM range vs. hIgG1-Fc.
In general terms: Surface plasmon resonance follows binding to a sensor surface in real time, without labels.
One may read the Kd as the equilibrium constant for the complex coming apart. B1 had a Kd of 103 nM.

Molecule B2 registered a Kd of 257 nM. This Kd lies about 2.5-fold higher than the previous one.

Molecule B3 displayed a Kd of 248 nM.

B4 had a Kd of 132 nM.

B5: binding was put at a Kd of 220 nM.

With B6, the Kd was determined as 190 nM.

With B7, binding was characterised by a dissociation constant (Kd) of 199 nM. The Kd values of the last two molecules are within 1.5-fold of each other.

B8: binding was characterised by a dissociation constant (Kd) of 43 nM.

As to B9, the affinity, expressed as Kd, was 84 nM. This Kd lies about 2-fold higher than the previous one.

As for B10, binding was put at a Kd of 507 nM.

The next test has as its target T1, hIgG1-Fc. Kind of test: SPR (Biacore) on hIgG1-Fc, one concentration, 1 µM.
From the text: Analysis via label-free interaction assays using SPR spectroscopy (BIAcore). Change in refractive index measured in real time and plotted as response or resonance unit [RU] versus time [sec]. […] Solid line = Ig binding protein SEQ ID NO: 41; dotted line = Ig binding protein SEQ ID NO: 42.
as §1, with “Binding studies were carried out by the use of the Biacore® 3000 (GE Healthcare) at 25° C.; data evaluation was operated via the BIAevaluation 3.0 software, provided by the manufacturer, by the use of the Langmuir 1:1 model (RI=0).” left out, “For example, the KD of SEQ ID NO: 41 (CID208846) and SEQ ID NO: 42 (CID208847) is in single-digit µM range vs. hIgG1-Fc.” left out
As to B11, the binding result is given as “binds”.

Regarding B12, the binding result is on record as “binds”.

For a further test, the target named is T1, hIgG1-Fc. Kind of test: SPR, Biacore 3000.
From the text: as §1
Regarding B13, the binding result is recorded as “binds”.

B14: the binding result was “binds”.

Consider B15, for which the binding result was “binds”.

Turning to B16, the binding result is listed as “binds”.

Values taken from patent publication US20230212218A1 (NAVIGO PROTEINS, published 2023).
